Results: the supplement of paper PMC7877785
± gives the uncertainty stated by the source.

Assay: self-splicing fitness, log relative to wild type (ln ratio); higher = more splicing; Tetrahymena group I intron in knt gene, E. coli kanamycin selection, DiMSum; sequences stand for … in CUCUCU…GGAGGGAAAAGUUAUCAGGCAUGCACCUGGUAGCUAGUCUUUAAACCAAUAGAUUGCAUCGGUUUAAAAGGCAAGACCGUCAAAUUGCGGGAAAGGGGUCAACAGCCGUUCAGUACCAAGUCUCAGGGGAAACUUUGAGAUGGCCUUGCAAAGGGUAUGGUAAUAAGCUGACGGACAUGGUCCUAACCACGCAGCCAAGUCCUAAGUCAACAGAUCUUCUGUUGAUAUGGAUGCAGUUCACAGACUAAAUGUCGGUCGGGGAAGAUGUAUUCUUCUCAUAAGAUAUAGUCGGACCUCUCCUUAAUGGGAGCUAGCGGAUGAAGUGAUGCAACACUGGAGCCGCUGGGAACUAAUUUGUAUGCGAAAGUAUAUUGAUUAGUUUUGGAGUACUCGUGGUCG
Procedure, shortened: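 Six replicate transformations of E. coli BL21(DE3) with a pET-22b(+) library were grown overnight at 37°C or 30°C. The library randomised all eight P1ex-region intron nucleotides, the intron lying in the knt kanamycin-resistance gene, and plates were LB agar with or without 25 μg/mL kanamycin plus 100 μg/mL carbenicillin, 50 μM IPTG and 0.2% rhamnose. Pooled colonies were amplicon-sequenced on an Illumina HiSeq 2500, and fitness is the DiMSum error-weighted combination of wild-type-normalised replicate fold changes, kanamycin versus none.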

Sequence	self-splicing fitness (ln) (30 °C)	self-splicing fitness (ln) (37 °C)
CUUGAGCAAUAUUACGCAGC	-2.02 ± 0.3	-0.712 ± 0.28
AUUAAGCAAUAUUACGCCAA	-0.955 ± 0.21	-1.59 ± 0.25
AAUUAGCAAUAUUACGGGCU	-2.04 ± 0.23	-1.64 ± 0.26
CCAUAGCAAUAUUACGGAGC	–	-2.74 ± 0.31
GAAUAGCAAUAUUACGUCCA	-1.28 ± 0.1	-0.00949 ± 0.13
UUUGAGCAAUAUUACGGGAC	-3.43 ± 0.34	-2.12 ± 0.27
GACCAGCAAUAUUACGGAAA	-0.538 ± 0.086	0.437 ± 0.096
GGCAAGCAAUAUUACGGACA	-0.577 ± 0.085	-0.00922 ± 0.11
CGUCAGCAAUAUUACGGUGU	-2.66 ± 0.12	-0.454 ± 0.1
GGGUAGCAAUAUUACGGCAU	-0.0241 ± 0.076	-0.23 ± 0.096
ACAAAGCAAUAUUACGCUGG	-1.3 ± 0.095	-0.426 ± 0.12
UAGAAGCAAUAUUACGGGAG	-1.97 ± 0.14	-1.39 ± 0.12
UCAUAGCAAUAUUACGGAAG	–	-2.19 ± 0.33
GAACAGCAAUAUUACGCGUC	-2.99 ± 0.12	-3.19 ± 0.16
GACAAGCAAUAUUACGUUUU	-2.69 ± 0.076	-1.97 ± 0.1
UAAGAGCAAUAUUACGAUUC	–	-0.537 ± 0.43
ACUCAGCAAUAUUACGUAGC	-1.24 ± 0.069	-0.786 ± 0.11
UGCCAGCAAUAUUACGAAGG	-3.59 ± 0.27	-2.6 ± 0.3
GUUGAGCAAUAUUACGCUCG	-2.49 ± 0.16	-2.34 ± 0.3
AGAUAGCAAUAUUACGUCGC	-3.24 ± 0.39	-1.21 ± 0.23
UAAAAGCAAUAUUACGCCGU	-3.01 ± 0.21	-2.1 ± 0.22
CCUAAGCAAUAUUACGGUAG	-1.27 ± 0.078	-0.941 ± 0.097
AUACAGCAAUAUUACGGACC	-0.965 ± 0.21	-1.07 ± 0.26
UUCUAGCAAUAUUACGCAGC	–	-0.431 ± 0.2
GCACAGCAAUAUUACGCACA	-1.09 ± 0.092	-0.164 ± 0.1

Sequence	self-splicing fitness (ln) (30 °C)	self-splicing fitness (ln) (37 °C)
CGAAAGCAAUAUUACGUCUU	-2.8 ± 0.13	-1.87 ± 0.16
CUUGAGCAAUAUUACGGGGC	-3.82 ± 0.2	-0.729 ± 0.17
AGCGAGCAAUAUUACGUGGA	-2.95 ± 0.22	-2.81 ± 0.16
UAAAAGCAAUAUUACGAGCU	-2.07 ± 0.11	-1.68 ± 0.14
UUCAAGCAAUAUUACGGAAA	-1.83 ± 0.11	-1.12 ± 0.1
UAGGAGCAAUAUUACGAUUG	-1.85 ± 0.15	-0.617 ± 0.16
UAUGAGCAAUAUUACGGAGC	-1.38 ± 0.36	–
CAGCAGCAAUAUUACGGAGC	-3.3 ± 0.33	-2.68 ± 0.39
AGUUAGCAAUAUUACGUGAU	-3.08 ± 0.21	-1.19 ± 0.18
GAGCAGCAAUAUUACGUUAU	-1.77 ± 0.087	-1.3 ± 0.12
UAAUAGCAAUAUUACGAAGA	–	-2.76 ± 0.31
UUACAGCAAUAUUACGAUUA	-0.238 ± 0.094	-0.0645 ± 0.089
AUUCAGCAAUAUUACGAUCA	-0.753 ± 0.088	-0.162 ± 0.11
CAGCAGCAAUAUUACGCUUC	-3.43 ± 0.19	-2.63 ± 0.28
GUUUAGCAAUAUUACGAAAA	-1.78 ± 0.29	-0.97 ± 0.25
UCAUAGCAAUAUUACGAACA	-1.78 ± 0.17	-0.838 ± 0.16
UUAGAGCAAUAUUACGCUUU	-3.62 ± 0.37	-2.02 ± 0.32
CGAGAGCAAUAUUACGGCCU	-2.61 ± 0.39	-2.63 ± 0.44
UGGGAGCAAUAUUACGUUAU	-3.22 ± 0.27	-1.86 ± 0.34
UAACAGCAAUAUUACGGAGU	-3.7 ± 0.17	-1.41 ± 0.12
UACGAGCAAUAUUACGACUA	-0.65 ± 0.085	-0.167 ± 0.1
ACAGAGCAAUAUUACGUAGC	-3.27 ± 0.33	-2.56 ± 0.41
AUACAGCAAUAUUACGUGAU	-2.14 ± 0.084	-0.569 ± 0.089
GUGCAGCAAUAUUACGAAGC	-1.05 ± 0.14	-1.36 ± 0.19
